Patent US9035028B2, “Temperature sensitive conjugate compositions” (Emory University, priority 2010, dated 2015)

Columns and labels:
[1] = system: human platelets; test: 96-well plate light transmission aggregometry, ADP-driven platelet aggregation; format: cell-based; conditions: 22° C.
Experimental: Light transmission aggregometry was performed using a Biorad Benchmark plate reader. After incubation of human PRP with EMP-scFv (15 μg/mL), vehicle (PBS) or the GPIIb/IIIa blocker abciximab (10 μg/mL) (Reopro®, Eli Lilly, Indianapolis, U.S.A.) for 10 minutes at different temperatures, the aggregation was induced by the addition of 2 or 20 μM ADP with vigorous stirring in a 96-well plate. The absorbance was determined at 595 nm every 15 seconds for 16 minutes between vigorous shaking at 22° C. and 37° C.

[2] = molecular target: T1, GPIIb/IIIa on mouse platelets (Mus musculus, UniProt O54890+Q9QUM0); test: Flow cytometry: binding to mouse platelets
T1 construct: endogenous in cells
T1 sequence (Q9QUM0 32-1033): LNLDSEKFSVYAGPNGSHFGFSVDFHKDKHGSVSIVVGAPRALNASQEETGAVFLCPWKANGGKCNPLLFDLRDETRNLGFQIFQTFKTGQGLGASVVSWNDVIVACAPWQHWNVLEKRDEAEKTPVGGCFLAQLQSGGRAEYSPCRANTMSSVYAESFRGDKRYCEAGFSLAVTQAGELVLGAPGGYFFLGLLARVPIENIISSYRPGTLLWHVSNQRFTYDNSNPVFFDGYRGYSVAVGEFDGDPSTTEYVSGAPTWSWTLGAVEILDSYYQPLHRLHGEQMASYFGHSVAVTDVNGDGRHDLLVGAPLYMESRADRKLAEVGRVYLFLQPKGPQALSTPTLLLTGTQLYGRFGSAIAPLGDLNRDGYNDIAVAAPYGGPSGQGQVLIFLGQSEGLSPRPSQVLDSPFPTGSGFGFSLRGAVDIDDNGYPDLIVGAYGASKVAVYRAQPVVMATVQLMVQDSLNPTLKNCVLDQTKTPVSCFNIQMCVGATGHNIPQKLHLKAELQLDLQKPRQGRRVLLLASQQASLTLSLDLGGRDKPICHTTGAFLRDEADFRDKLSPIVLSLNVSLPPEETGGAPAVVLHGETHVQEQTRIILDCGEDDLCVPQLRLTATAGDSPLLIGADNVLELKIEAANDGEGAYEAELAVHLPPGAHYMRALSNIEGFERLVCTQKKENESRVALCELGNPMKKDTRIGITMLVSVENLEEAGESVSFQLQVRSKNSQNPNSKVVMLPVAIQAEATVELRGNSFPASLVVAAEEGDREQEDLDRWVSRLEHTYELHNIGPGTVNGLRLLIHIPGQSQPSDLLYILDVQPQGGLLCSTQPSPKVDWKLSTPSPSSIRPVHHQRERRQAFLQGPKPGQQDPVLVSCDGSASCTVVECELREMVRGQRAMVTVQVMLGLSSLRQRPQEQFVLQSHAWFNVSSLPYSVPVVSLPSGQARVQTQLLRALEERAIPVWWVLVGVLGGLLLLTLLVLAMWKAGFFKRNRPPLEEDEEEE
T1 sequence (O54890 26-787): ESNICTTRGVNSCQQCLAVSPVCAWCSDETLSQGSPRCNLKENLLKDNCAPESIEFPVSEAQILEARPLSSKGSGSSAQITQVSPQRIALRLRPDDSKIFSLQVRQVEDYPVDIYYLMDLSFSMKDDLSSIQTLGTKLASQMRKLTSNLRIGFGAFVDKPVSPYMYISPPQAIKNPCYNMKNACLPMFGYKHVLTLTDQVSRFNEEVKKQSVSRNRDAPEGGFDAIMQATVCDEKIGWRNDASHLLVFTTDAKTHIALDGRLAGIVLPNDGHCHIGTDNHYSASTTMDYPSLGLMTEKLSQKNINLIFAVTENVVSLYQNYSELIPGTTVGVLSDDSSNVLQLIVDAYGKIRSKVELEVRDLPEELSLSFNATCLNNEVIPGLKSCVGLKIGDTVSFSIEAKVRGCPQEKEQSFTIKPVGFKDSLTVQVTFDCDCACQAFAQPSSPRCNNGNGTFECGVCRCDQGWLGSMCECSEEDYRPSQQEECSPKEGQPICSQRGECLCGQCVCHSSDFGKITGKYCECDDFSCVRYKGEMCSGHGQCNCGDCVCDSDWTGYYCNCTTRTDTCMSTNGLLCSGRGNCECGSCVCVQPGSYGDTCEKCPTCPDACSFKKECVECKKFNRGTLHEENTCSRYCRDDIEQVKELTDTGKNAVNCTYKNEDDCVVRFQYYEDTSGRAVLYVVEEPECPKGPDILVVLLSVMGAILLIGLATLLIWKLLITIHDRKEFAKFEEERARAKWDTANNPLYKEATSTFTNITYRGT
Experimental: (§1) Mouse blood was collected by intracardiac puncture with a 27-gauge needle from C57BL/6 mice and anticoagulated with non-fractionated heparin (20 U/mL). A volume of 50 μl was washed with 1 mL modified Tyrode's buffer (150 mM NaCl, 2.5 mM KCl, 1.2 mM NaHCO3, 0.1% BSA, 0.1% Glucose) and centrifuged at 1200×g for 6 min. The supernatant was discarded and the pellet was resuspended in 1 mL modified Tyrode's buffer containing 2 mM MgCl2 and 2 mM CaCl2.
(§2) Human PRP was diluted 1/50 in modified Tyrode's buffer containing 2 mM MgCl2 and 2 mM CaCl2. Platelets were either activated by addition of 20 μM ADP, or non activated, followed by the incubation with 15 and 50 μg/mL EMP-scFv fusion protein or EMP at 22° C., 32° C. and at 37° C. for 15 min. Mouse platelets were either pre-activated for 10 min by addition of 0.1 U/mL thrombin (Enzyme Research Laboratories), or non activated, before the incubation with 15 and 50 μg/mL of EMP-scFv fusion protein at 22° C., 32° C. or 37° C. for 15 min. In both, human and mouse samples, EMP-scFv was detected via 15 min in-dark incubation with secondary antibody (Penta-His Alexa Fluor 488, Qiagen) directed against the His(6)-tag of the single-chain antibody.

[3] = system: jugular venous thrombosis; test: Model of jugular venous thrombosis; format: in vivo, mouse; conditions: 28° C., 15 minutes after the injury, vs control group and 37° C.
Experimental: C57BL/6 mice weighing from 20-25 g were used. Care and use of laboratory animals followed the national guidelines and were approved by the institutional animal care and ethics committees. Mice were anesthetized with isoflurane, following an intra-peritoneal injection with ketamine (100 mg/kg BW) and xylazine (20 mg/kg BW). The body core temperature was monitored with a digital thermometer, and controlled at either 28° C. or 37° C. with a thermal pad (Temperature Controller TR-200, Fine Science Tools Inc.). Reducing the body temperature to 28° C. was achieved by a gradual drop, at a rate of 0.3-0.4° C./min. The mice on the thermal pad were placed under a dissecting microscope (SZ61, Olympus). An incision of the skin was made directly on the top of trachea, and vessels used for experiment were bluntly isolated from surrounding tissues. […] After rinsing with normal saline, a nano-Doppler flow probe (0.5 VB, Transonic) was then positioned over the vessel and the blood flow rate (ml/min) was measured by a transit-time perivascular flow-meter (TS420, Transonic Systems Inc.). […] Jugular vein blood flow was recorded 15 minutes after induction of injury in mice pre-treated with EMP-scFv, eptifibatide or saline. The blood flow recorded at 1 minute was considered as the initial blood flow rate. […]

[4] = Circular dichroism (CD) spectra and thermal transition profile; format: physicochemical
Experimental: The mathematical fitting of the CD data allowed the determination of the transition temperature (Tt) resulting from conformational change of EMP as the temperature is increased. The mathematical fitting of the CD data to the van't Hoff equation allowed the determination of the transition temperature (Tt) resulting from conformational change of EMP and EMP-scFv as the temperature is increased.
Circular dichroism (CD) spectra were recorded on a Jasco J-810 spectropolarimeter equipped with a PFD-425S Peltier temperature control unit in 0.1 cm sealed quartz cells at concentrations of 7.5 μM (EMP), 8.4 μM (scFv) and 4.1 μM (EMP-scFv) in 50 mM sodium phosphate buffer, pH 7.4. Temperature/wavelength CD-scans were performed within the temperature range from 5° C. to 35° C. with equilibration for 10 min at each temperature. Spectra were obtained from 260 to 190 nm at a resolution of 0.5 nm and at a scanning speed of 50 nm/min. The CD curves represented the average of five measurements and were smoothed using the means-movement method on the interval analysis of the spectral manager program. CD data are reported as mean residue ellipticity ([θ], deg cm^2 dmol^−1). Thermal transition curves were plotted by the mean residue ellipticity as a function of temperature for the disappearance of the random coil and the appearance of the β-turn structure.

[5] = molecular target: T1, GPIIb/IIIa on mouse platelets; test: Flow cytometry: inhibition of fibrinogen binding to mouse platelets; format: cell-based
Experimental: as §1, §2
Fibrinogen binding to human activated platelets in the presence of EMP-scFv was determined with a polyclonal rabbit anti-human fibrinogen FITC-labelled antibody (DakoCytomation), while the effects of EMP-scFv on fibrinogen binding to mouse platelets were determined using FITC-conjugated rabbit anti-fibrinogen polyclonal antibody (Cemfret). Fluorescence detection was performed as described above. Samples were measured in a FACSCalibur® flow cytometer (Becton Dickinson), after fixation with 1× CellFIX® (Becton Dickinson).

B1: EMP-scFv: fusion of elastin mimetic polypeptide (EMP) and activation-specific GPIIb/IIIa-blocking single-chain antibody; 704 amino acids, approximately 70 kDa (protein)
chain: MAVPAVGIPAVGIPAVGIPAVGIPAVGIPAVGIPAVGIPAVGIPAVGIPAVGIPAVGIPAVGIPAVGIPAVGIPAVGIPAVGIPAVGIPAVGIPAVGIPAVGIPAVGIPAVGIPAVGIPAVGIPAVGIPAVGIPAVGIPAVGIPAVGIPAVGIPAVGIPAVGIPAVGIPAVGIPAVGIPAVGIPAVGIPAVGIPAVGIPAVGIPAVGIPAVGIPAVGIPAVGIPAVGIPAVGIPAVGIPAVGIPAVGIPAVGIPAVGIPAVGIPAVGIPAVGIPAVGIPAVGIPAVGIPAVGIPAVGIPAVGIPAVGIPAVGIPAVGIPAVGIPAVGIPAVGIPAVGIPAVGIPAVGIPAVGIPAVGIPAVGIPAVGIPAVGIPAVGIPAVGIPAVGIPAVGIPAVGIPAVGIPGGGGSMMAEVQLVESGGGLVQPGGSLRLSCAASGFMFSRYAMSWVRQAPGKGPEWVSGISGSGGSTYYADSVKGRFTVSRDNSKNTLYLQMNSLRAEDTAVYYCARIFTHRSRGDVPDQTSFDYWGQGTLVTVSSGSASAPKLEEGEFSEARVSSELTQDPAVSVALGQTVRITCQGDSLRNFYASWYQQKPGQAPTLVIYGLSKRPSGIPDRFSASSSGNTASLTITGAQAEDEADYYCLLYYGGGQQGVFGGGTKLTVLRQPKAAPSVTLFPPSSAAAGSEQKLISEEDLNSHHHHHH
ADP-driven platelet aggregation [1]: effective inhibition
binding to activated murine platelets ([2]; 22° C., mouse whole blood): binds
binding to resting mouse platelets ([2]; either 22° C. or 37° C.): did not bind
percentage of initial blood flow [3]: significantly higher levels of blood flow
transition temperature (Tt), disappearance of the random coil ([4]; CD data at 200 nm): 15 °C
transition temperature (Tt), appearance of the β-turn structure ([4]; CD data at 215 nm): 28 °C
temperature at which structural change and hydrophobic collapse were completed ([4]; thermal transition curve): higher than 35 °C
fibrinogen binding to activated mouse platelets ([5]; 22° C.): significant decrease
fibrinogen binding to activated mouse platelets ([5]; 32° C.): inhibit the binding of fibrinogen
fibrinogen binding to activated mouse platelets ([5]; 37° C.): did not affect
